In publication PMC8571082, “Structural and thermodynamical insights into the binding and inhibition of FIH-1 by the N-terminal disordered region of Mint3” (The Journal of Biological Chemistry, 2021):

How the values were obtained:
Conditions in all cases: both partners purified
[1] = target: T1, factor inhibiting HIF-1 (FIH-1) (human, UniProt Q9NWT6 1-349); experiment: ITC; Mint3 construct in the syringe (150 μM, 25 injections of 1.5 μl) titrated into 30 μM FIH-1 in the cell; 25 °C; 35 mM Na-phosphate pH 7.5, 300 mM NaCl, 500 μM αKG; single set of sites model
T1 construct: N-terminal His6 tag and TEV site (ENLYFQ) cleaved with TEV protease; Dimer by SEC and SEC-MALS (about 80 kDa); also called FIH-1 WT; source: E. coli BL21 (DE3), purified (Ni-NTA, TEV cleavage, SEC); not shown: His6, N-terminal, cleaved

FIH-1 Y71A = target: T2, FIH-1 Y71A (human, UniProt Q9NWT6 1-349, Tyr71 replaced with Ala); experiment: ITC; MicroCal iTC200, 25 °C; 150 μM Mint3 in the syringe, 30 μM FIH-1 in the cell, 25 injections of 1.5 μl; 35 mM Na-phosphate pH 7.5, 300 mM NaCl, 500 μM αKG; single set of sites model; for Figure 4 also in the absence of αKG and/or with EDTA
T2 construct: also called Tyr71 replaced with Ala; source: E. coli BL21 (DE3), purified (mutants prepared as FIH-1); not shown: His6, N-terminal, cleaved

FIH-1 K75A = target: T3, FIH-1 K75A (human, UniProt Q9NWT6 1-349, Lys75 replaced with Ala); experiment: as above
T3 construct: also called Lys75 replaced with Ala; source: E. coli BL21 (DE3), purified (mutants prepared as FIH-1); not shown: His6, N-terminal, cleaved

FIH-1 E79A = target: T4, FIH-1 E79A (human, UniProt Q9NWT6 1-349, Glu79 replaced with Ala); experiment: as above
T4 construct: also called Glu79 replaced with Ala; source: E. coli BL21 (DE3), purified (mutants prepared as FIH-1); not shown: His6, N-terminal, cleaved

FIH-1 N171A = target: T5, FIH-1 N171A (human, UniProt Q9NWT6 1-349, Asn171 replaced with Ala); experiment: as above
T5 construct: also called Asn171 replaced with Ala; source: E. coli BL21 (DE3), purified (mutants prepared as FIH-1); not shown: His6, N-terminal, cleaved

FIH-1 E29A = target: T6, FIH-1 E29A (human, UniProt Q9NWT6 1-349, Glu29 replaced with Ala); experiment: as above
T6 construct: also called Glu29 replaced with Ala (negative control); source: E. coli BL21 (DE3), purified (mutants prepared as FIH-1); not shown: His6, N-terminal, cleaved

FIH-1 D248A = target: T7, FIH-1 D248A (human, UniProt Q9NWT6 1-349, Asp248 replaced with Ala); experiment: as above
T7 construct: also called Asp248 replaced with Ala (negative control); source: E. coli BL21 (DE3), purified (mutants prepared as FIH-1); not shown: His6, N-terminal, cleaved

[2] = target: T8, factor inhibiting HIF-1 (FIH-1), full-length (human, UniProt Q9NWT6 1-349); experiment: as above
T8 construct: Dimer by SEC and SEC-MALS; The TEV site ENLYFQ lay between the His6 tag and FIH-1; also called FIH-1 WT; source: E. coli BL21 (DE3), purified (Ni-NTA, TEV cleavage, SEC); not shown: His6, N-terminal, cleaved

FIH-1 E250A = target: T9, FIH-1 E250A (human, UniProt Q9NWT6 1-349, Glu250 replaced with Ala); experiment: as above
T9 construct: also called Glu250 replaced with Ala (negative control); source: E. coli BL21 (DE3), purified (mutants prepared as FIH-1); not shown: His6, N-terminal, cleaved
T9 sequence (Q9NWT6 whole entry E250A): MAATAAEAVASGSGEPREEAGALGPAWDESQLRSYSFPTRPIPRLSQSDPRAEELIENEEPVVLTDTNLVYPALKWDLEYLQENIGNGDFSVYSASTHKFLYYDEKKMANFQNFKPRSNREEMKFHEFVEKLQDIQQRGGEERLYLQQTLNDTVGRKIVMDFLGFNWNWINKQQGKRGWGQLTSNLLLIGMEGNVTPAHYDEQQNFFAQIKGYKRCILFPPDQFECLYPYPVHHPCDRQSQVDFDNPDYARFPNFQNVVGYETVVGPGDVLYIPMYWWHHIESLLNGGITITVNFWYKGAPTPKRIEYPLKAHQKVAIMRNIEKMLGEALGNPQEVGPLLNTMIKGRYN

T8 sequence (Q9NWT6 whole entry): as the sequence (Q9NWT6 whole entry E250A) above, with A250E counted along it
T1 sequence (Q9NWT6 whole entry): as the sequence (Q9NWT6 whole entry E250A) above, with A250E counted along it
T2 sequence (Q9NWT6 whole entry Y71A): as the sequence (Q9NWT6 whole entry E250A) above, with Y71A, A250E counted along it
T5 sequence (Q9NWT6 whole entry N171A): as the sequence (Q9NWT6 whole entry E250A) above, with N171A, A250E counted along it
T6 sequence (Q9NWT6 whole entry E29A): as the sequence (Q9NWT6 whole entry E250A) above, with E29A, A250E counted along it
T4 sequence (Q9NWT6 whole entry E79A): as the sequence (Q9NWT6 whole entry E250A) above, with E79A, A250E counted along it
T7 sequence (Q9NWT6 whole entry D248A): as the sequence (Q9NWT6 whole entry E250A) above, with D248A, A250E counted along it
T3 sequence (Q9NWT6 whole entry K75A): as the sequence (Q9NWT6 whole entry E250A) above, with K75A, A250E counted along it

B1: Mint3NT, N-terminal fragment (1-214) of Mint3 (domain or fragment, human, UniProt O96018 1-214, looked up)
chain: MDFPTISRSPSGPPAMDLEGPRDILVPSEDLTPDSQWDPMPGGPGSLSRMELDESSLQELVQQFEALPGDLVGPSPGGAPCPLHIATGHGLASQEIADAHGLLSAEAGRDDLLGLLHCEECPPSQTGPEEPLEPAPRLLQPPEDPDEDSDSPEWVEGASAEQEGSRSSSSSPEPWLETVPLVTPEEPPAGAQSPETLASYPAPQEVPGPCDHED
notes: human Mint3 (X11gamma/APBA3), residues 1-214; also called 1-214 (NT); Mint3(1-214); source: E. coli BL21 (DE3), purified (Ni-NTA, SEC; monomer fraction)
[1]
  Kd: 520 ± 20 nM

B2: Mint3 fragment (1-92) (domain or fragment, human, UniProt O96018 1-92, looked up)
chain: MDFPTISRSPSGPPAMDLEGPRDILVPSEDLTPDSQWDPMPGGPGSLSRMELDESSLQELVQQFEALPGDLVGPSPGGAPCPLHIATGHGLA
notes: human Mint3 (X11gamma/APBA3), residues 1-92; source: E. coli BL21 (DE3), purified (mutants/fragments of Mint3 prepared as Mint3NT)
[1]
  Kd: 9000 ± 900 nM

B3: Mint3NT, N-terminal fragment (1–214) of Mint3 (domain or fragment, human, UniProt O96018 1-214, looked up)
chain: MDFPTISRSPSGPPAMDLEGPRDILVPSEDLTPDSQWDPMPGGPGSLSRMELDESSLQELVQQFEALPGDLVGPSPGGAPCPLHIATGHGLASQEIADAHGLLSAEAGRDDLLGLLHCEECPPSQTGPEEPLEPAPRLLQPPEDPDEDSDSPEWVEGASAEQEGSRSSSSSPEPWLETVPLVTPEEPPAGAQSPETLASYPAPQEVPGPCDHED
notes: Mint3 (X11γ/APBA3), human, N-terminal fragment, residues 1-214; Uniformly 15N-labelled (M9 medium) for the NMR titration; No cleavage site is told for the C-terminal His6 tag; also called Mint3(1–214); 15N-Mint3NT; source: E. coli BL21 (DE3), purified (Ni-NTA, SEC; monomer fraction collected)
FIH-1 Y71A
  binding result: binds
FIH-1 K75A
  binding result: binds
FIH-1 E79A
  binding result: binds
FIH-1 N171A
  binding result: binds
FIH-1 E29A
  binding result: binds
FIH-1 D248A
  binding result: binds
[2]
  dH: -32.2 ± 0.7 kcal/mol
  stoichiometry N: 0.48 ± 0.02
FIH-1 E250A
  binding result: binds

B4: Mint3NTmut, Mint3NT (1–214) with the mutations … → AAASAAAGRD (domain or fragment, human, UniProt O96018 1-214, looked up)
chain: MDFPTISRSPSGPPAMDLEGPRDILVPSEDLTPDSQWDPMPGGPGSLSRMELDESSLQELVQQFEALPGDLVGPSPGGAPCPLHIATGHGLASQEIADAHAAASAAAGRDDLLGLLHCEECPPSQTGPEEPLEPAPRLLQPPEDPDEDSDSPEWVEGASAEQEGSRSSSSSPEPWLETVPLVTPEEPPAGAQSPETLASYPAPQEVPGPCDHED
notes: source: E. coli BL21 (DE3), purified (mutants/fragments prepared as Mint3NT)
[2]
  Kd: 1310 nM
  dH: -13.9 kcal/mol
  stoichiometry N: ~0.5

B5: Mint3(1–117), N-terminal half of Mint3NT (domain or fragment, human, UniProt O96018 1-117, looked up)
chain: MDFPTISRSPSGPPAMDLEGPRDILVPSEDLTPDSQWDPMPGGPGSLSRMELDESSLQELVQQFEALPGDLVGPSPGGAPCPLHIATGHGLASQEIADAHGLLSAEAGRDDLLGLLH
notes: as for B4
[2]
  Kd: 650 ± 70 nM
  dH relative to Mint3NT: ~0.5
  stoichiometry N: ~0.5

B6: Mint3 fragment (1–92) (domain or fragment, human, UniProt O96018 1-92, looked up)
chain: MDFPTISRSPSGPPAMDLEGPRDILVPSEDLTPDSQWDPMPGGPGSLSRMELDESSLQELVQQFEALPGDLVGPSPGGAPCPLHIATGHGLA
notes: as for B4
[2]
  stoichiometry N: ~0.5

B7: short peptide of Mint3 (93–117) (peptide, UniProt O96018 93-117, looked up)
chain: SQEIADAHGLLSAEAGRDDLLGLLH
notes: The methods say only that mutants/fragments of Mint3 were prepared as Mint3NT (E. coli, C-terminal His6); the results call this a peptide and speak of synthesis for the peptide 78-88, so it may be synthetic
[2]
  Kd: 3000 ± 600 nM
  stoichiometry N: ~0.5
